Measured values from patent US20130109846A1 (published 2013).
Numbering of substitutions follows the chain as printed.

B1: 1h-93 (other)
VH: EVQLLESGGGLVQPGGSLRLSCAASGFTFPLYEMAWVRQAPGKGLEWVSSIMSNGIRTYYADSVKGRFTISRDNSKNTLYLQMNSLRAEDTAVYYCAKRKSSSSRTVFDYWGQGTLVTVSS
B2: 1h-93-1 (other)
VH: B1 VH with I56T, K100E
B3: 1h-93-204 (other)
VH: B1 VH with P30Y, L31T, Y32A, K98R, K100E
B4: 1h-93-2 (other)
VH: B1 VH with K100E
B5: 1h-93-201 (other)
VH: B1 VH with P30S, L31V, Y32S, K98R, K100E
B6: 1h-37 (other)
VH: EVQLLESGGGLVQPGGSLRLSCAASGFTFGTYKMVWVRQAPGKGLEWVSSIGPGGLDTYYADSVKGRFTISRDNSKNTLYLQMNSLRAEDTAVYYCAKSWMTLPITGFDYRGQGTLVTVSS
B7: 1h-239-869 (other)
VL: DIQMTQSPSSLSASVGDRVTITCRASQSIYPFLEWYQQKPGKAPKLLIYFTSRLQSGVPSRFSGSGSGTDFTLTISSLQPEDFATYYCLQNVQMPATFSQGTKVEIKR
B8: 1h-239-871 (other)
VL: B7 VL with Q93A, M94N
B9: 1h-239-9 (other)
VL: B7 VL with Q93T, M94N, S99G
B10: 1h-239-870 (other)
VL: B7 VL with Q93M
B11: 1h-31 (other)
VL: DIQMTQSPSSLSASVGDRVTITCRASQSIGYSLAWYQQKPGKAPKLLIYWVSSLQSGVPSRFSGSGSGTDFTLTISSLQPEDFATYYCQQTQRTPFTFGQGTKVEIKR
B12: 1h-32 (other)
VL: B11 VL with S28N, Y31H, S32G, S53L, Q92L, R93S, T94K
B13: 1h-29 (other)
VH: EVQLLESGGGLVQPGGSLRLSCAASGFTFEDYDMNWVRQAPGKGLEWVSHIDRGGTLTYYADSVKGRFTISRDNSKNTLYLQMNSLRAEDTAVYYCAKSTLMGFDYWGQGTLVTVSS
B14: 1h-33 (other)
VL: DIQMTQSPSSLSASVGDRVTITCRASSNIHNRLNWYQQKPGKAPKLLIYAASSLQSGVPSRFSGSGSGTDFTLTISSLQPEDFATYYCRQWIQPPWTFGQGTKVEIKR
B15: 1h-99-2112 (other)
VH: EVQLLESGGGLVQPGGSLRLSCAASGFTFKDKNMSWARQAPGKGLEWVSWIEAPGVQTFYADSVRGRFTISRDNSKNTLYLQMNSLRAEDTAVYYCARSPFGPLYGFDYRGQGTLVTVSS
B16: 1h-99-2115 (other)
VH: B15 VH with A37V
B17: 1h-99-2114 (other)
VH: B15 VH with P54I, R65K, R98K
B18: 1h-99-2113 (other)
VH: B15 VH with P54S, R65K, R98K
B19: 1h-99 (other)
VH: EVQLLESGGGLVQPGGSLRLSCAASGFTFDSANMTWVRQAPGKGLEWVSWIDDTGTQTYYADSVKGRFTISRDNSKNTLYLQMNSLRAEDTAVYYCAKSPFGPLYGFDYWGQGTLVTVSS
B20: 1h-99-218 (other)
VH: B19 VH with S31K, A32S, T35S, V37A, D52E, Y59F, W110R
B21: 1h-99-224 (other)
VH: B19 VH with D30S, S31H, A32N, T35S, D52E, Y59F, W110R
B22: 1h-99-221 (other)
VH: B19 VH with D30A, S31R, A32S, T35S, D52E, Y59F, W110R
B23: 1h-99-201 (other)
VH: B19 VH with D30H, S31R, A32W, T35S, V37A, D52E, Y59F, W110R
B24: 1h-99-1 (other)
VH: B19 VH with D52E, Y59F, K65R, S75F, W110R
B25: 1h-99-222 (other)
VH: B19 VH with D30Q, S31R, A32S, T35S, D52E, Y59F, W110R
B26: 1h-99-220 (other)
VH: B19 VH with D30Y, S31R, A32S, T35S, D52E, Y59F, W110R
B27: 1h-99-203 (other)
VH: B19 VH with D30Y, S31K, T35S, V37A, D52E, Y59F, W110R
B28: 1h-99-217 (other)
VH: B19 VH with D30S, S31R, A32S, T35S, V37G, D52E, Y59F, W110R
B29: 1h-99-226 (other)
VH: B19 VH with D30K, T35S, D52E, Y59F, W110R
B30: 1h-99-2116 (other)
VH: B15 VH with A37V, P54S, R65K, R98K
B31: 1h-99-225 (other)
VH: B19 VH with D30R, S31L, A32Q, T35S, D52E, Y59F, W110R
B32: 1h-30 (other)
VH: EVQLLESGGGLVQPGGSLRLSCAASGFTFAHYHMGWVRQAPGKGLEWVSWIPADGLRTYYADSVKGRFTISRDNSKNTLYLQMNSLRAEDTAVYYCAKYEGAFDYWGQGTLVTVSS
B33: 1h-18-1 (other)
VL: DIQMTQSPSSLSASVGDRVTITCRASQYIGTSLNWYQQKPGKAPKLLTYQASFLQSGVPSRFSGSGSGTDFTLTISSLQPEDFATYYCQQLALRPMTFGQGTKVEIKR
B34: 1h-18-3 (other)
VL: B33 VL with Q50R, F53L
B35: 1h-18-6 (other)
VL: B33 VL with T48I, F53L, S67Y
B36: 1h-18-5 (other)
VL: B33 VL with F53L, L93M, R108W
B37: 1h-34 (other)
VL: B33 VL with N34A, T48I, Q50H, A51S, F53G, S60L, L91T, M96F

Biological target: human CD28 (human, UniProt P10747 19-220)
Assay: cell-based or functional assay

| Binder | Luciferase assay (EC50) | MLR assay (EC50) |
| --- | --- | --- |
| B1 | 2800 nM | 3200 nM |
| B2 | 493 nM | 545 nM |
| B3 | 176 nM | 1200 nM |
| B4 | 383 nM | 830 nM |
| B5 | 182 nM | 18 nM |
| B6 |  | 1900 nM |
| B7 |  | 2 nM |
| B8 |  | 3 nM |
| B9 | 27 nM |  |
| B10 |  | 3 nM |
| B11 | 800 nM |  |
| B12 | 4500 nM |  |
| B13 | > 7000 nM |  |
| B14 | 1600 nM |  |
| B15 | 3 nM | 2 nM |
| B16 | 3 nM | 12 nM |
| B17 | 4 nM | 2 nM |
| B18 | 5 nM | 3 nM |
| B19 |  | 2200 nM |

| Binder | Luciferase assay (EC50) | MLR assay (EC50) |
| --- | --- | --- |
| B20 | 10 nM | 12 nM |
| B21 | 15 nM | 28 nM |
| B22 | 12 nM | 17 nM |
| B23 | 14 nM | 18 nM |
| B24 | 15 nM | 19 nM |
| B25 | 16 nM | 28 nM |
| B26 | 10 nM | 12 nM |
| B27 | 8 nM | 10 nM |
| B28 | 12 nM | 15 nM |
| B29 | 10 nM | 23 nM |
| B30 | 5 nM | 4 nM |
| B31 | 14 nM | 28 nM |
| B32 | 1200 nM |  |
| B33 | 5400 nM |  |
| B34 | 1000 nM |  |
| B35 | 1400 nM |  |
| B36 | > 7000 nM |  |
| B37 | 2900 nM |  |
